# Laboratory results as given in US20060239990A1 (published 2006).
# T1: GST-RB fusion protein (UniProt P06400 1-928)
# T1 construct: not shown: glutathione S-transferase tag of the pGEX-6P vector (Amersham/Pharmacia)
# T1 sequence (looked up): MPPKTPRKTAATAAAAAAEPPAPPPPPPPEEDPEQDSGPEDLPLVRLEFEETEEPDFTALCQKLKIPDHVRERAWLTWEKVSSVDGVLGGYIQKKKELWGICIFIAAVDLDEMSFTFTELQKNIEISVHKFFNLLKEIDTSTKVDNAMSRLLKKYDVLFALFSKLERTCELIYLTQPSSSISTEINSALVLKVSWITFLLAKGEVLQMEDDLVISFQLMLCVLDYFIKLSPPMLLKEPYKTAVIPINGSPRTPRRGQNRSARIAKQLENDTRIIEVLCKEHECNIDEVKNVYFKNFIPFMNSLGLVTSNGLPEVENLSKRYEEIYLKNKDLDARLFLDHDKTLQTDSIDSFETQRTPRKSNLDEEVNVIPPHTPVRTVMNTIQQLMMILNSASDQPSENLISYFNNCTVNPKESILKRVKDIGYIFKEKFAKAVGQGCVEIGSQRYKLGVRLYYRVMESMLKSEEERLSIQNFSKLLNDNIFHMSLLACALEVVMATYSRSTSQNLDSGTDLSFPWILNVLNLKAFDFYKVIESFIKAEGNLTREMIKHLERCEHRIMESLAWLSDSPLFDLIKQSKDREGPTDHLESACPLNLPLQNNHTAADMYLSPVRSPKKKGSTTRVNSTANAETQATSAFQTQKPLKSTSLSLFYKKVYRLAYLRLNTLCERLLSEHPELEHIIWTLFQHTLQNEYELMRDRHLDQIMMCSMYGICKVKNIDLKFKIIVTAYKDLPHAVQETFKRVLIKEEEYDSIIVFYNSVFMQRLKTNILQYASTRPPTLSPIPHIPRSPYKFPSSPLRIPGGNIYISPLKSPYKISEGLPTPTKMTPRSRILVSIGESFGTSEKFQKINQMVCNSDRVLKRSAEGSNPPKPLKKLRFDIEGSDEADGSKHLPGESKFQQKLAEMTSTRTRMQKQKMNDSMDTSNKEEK
# How the values were obtained:
# GST-RB fusion protein [1] = target: T1, GST-RB fusion protein; assay: GST pull-down of S35-labeled in vitro translated protein with GST-RB
# GST-RB fusion protein [2] = target: T1, GST-RB fusion protein; assay: GST pull-down of S35-labeled in vitro translated protein with GST-RB on glutathione sepharose beads
# Method: GST-RB and GST were bound to glutathione sepharose beads and incubated with S³⁵-labeled in vitro translated PRMT1, PRMT2, PRMT3, and PRMT4. Co-precipitated labeled PRMTs were analyzed by SDS-PAGE. […] HA-tagged PRMT2 (+) or control vectors (−) were transfected in 293 cells. Cell lysates were immunoprecipitated with rabbit RB antibodies or IgG and followed by Western blot analysis using mouse HA and RB antibodies (upper panel). A Western blot using mouse HA antibodies detects HA-tagged PRMT2 (lower panel).
# The crude cell lysate of the GST-fusion proteins was prepared and purified according to the manufacture's protocol (Amersham/Pharmacia). [³⁵S]-methionine-labeled protein was produced by in vitro transcription/translation using the TNT T7-coupled reticulocyte lysate system (Promega). [³⁵S]-methionine-labeled protein and GST-fusion protein bound to glutathione sepharose 4B beads were incubated in 500 μl of HNE buffer (50 mM Hepes, pH 7.8, 150 mM NaCl, 1 mM EDTA, 1 mM DTT, 1% NP40, and 1× protease inhibitor mix (Complete: Roche)) at 4° C. for 1 hour. Beads were washed four times with HNE buffer, and then analyzed on an SDS-PAGE gradient gel (4-15%). […]
Binder,binding result (GST-RB fusion protein [1]),binding result (GST-RB fusion protein [2])
"PRMT2(1-95&219-433) (enzyme, [35S]-methionine label in the binding assay, the same deletion was expressed from pVR1012 in the U2OS reporter assay; also called Int-del) MATSGDCPRSESQGEEPAECSEAGLLQEGVQPEEFVAIADYAATDETQLSFLRGEKILILRQTTADWWWGERAGCCGYIPANHVGKHVDEYDPEDFEFMIESILYARDAWLKEDGVIWPTMAALHLVPCSADKDYRSKVLFWDNAYEFNLSALKSLAVKEFFSKPKYNHILKPEDCLSEPCTILQLDMRTVQISDLETLRGELRFDIRKAGTLHGFTAWFSVHFQSLQEGQPPQVLSTGPFHPTTHWKQTLFMMDDPVPVHTGDVVTGSVVLQRNPVWRRHMSVALSWAVTSRQDPTSQKVGEKVFPIWR",no binding,–
"S35-labeled in vitro translated PRMT4 (CARM1) (human) (enzyme, UniProt Q86X55 2-608, looked up, [35S]-methionine label) AAAAAAVGPGAGGAGSAVPGGAGPCATVSVFPGARLLTIGDANGEIQRHAEQQALRLEVRAGPDSAGIALYSHEDVCVFKCSVSRETECSRVGKQSFIITLGCNSVLIQFATPNDFCSFYNILKTCRGHTLERSVFSERTEESSAVQYFQFYGYLSQQQNMMQDYVRTGTYQRAILQNHTDFKDKIVLDVGCGSGILSFFAAQAGARKIYAVEASTMAQHAEVLVKSNNLTDRIVVIPGKVEEVSLPEQVDIIISEPMGYMLFNERMLESYLHAKKYLKPSGNMFPTIGDVHLAPFTDEQLYMEQFTKANFWYQPSFHGVDLSALRGAAVDEYFRQPVVDTFDIRILMAKSVKYTVNFLEAKEGDLHRIEIPFKFHMLHSGLVHGLAFWFDVAFIGSIMTVWLSTAPTEPLTHWYQVRCLFQSPLFAKAGDTLSGTCLLIANKRQSYDISIVAQVDQTGSKSSNLLDLKNPFFRYTGTTPSPPPGSHYTSPSENMWNTGSTYNLSSGMAVAGMPTAYDLSSVIASGSSVGHNNLIPLANTGIVNHTHSRMGSIMSTGIVQGSSGAQGSGGGSTSAHYAVNSQFTMGGPAISMASPMSIPTNTMHYGS",–,no binding

# Second part, the binder after the results:
binding result (GST-RB fusion protein [1]),binding result (GST-RB fusion protein [2]),Binder
–,no binding,"S35-labeled in vitro translated PRMT3 (human) (enzyme, UniProt O60678 2-531, looked up, [35S]-methionine label) CSLASGATGGRGAVENEEDLPELSDSGDEAAWEDEDDADLPHGKQQTPCLFCNRLFTSAEETFSHCKSEHQFNIDSMVHKHGLEFYGYIKLINFIRLKNPTVEYMNSIYNPVPWEKEEYLKPVLEDDLLLQFDVEDLYEPVSVPFSYPNGLSENTSVVEKLKHMEARALSAEAALARAREDLQKMKQFAQDFVMHTDVRTCSSSTSVIADLQEDEDGVYFSSYGHYGIHEEMLKDKIRTESYRDFIYQNPHIFKDKVVLDVGCGTGILSMFAAKAGAKKVLGVDQSEILYQAMDIIRLNKLEDTITLIKGKIEEVHLPVEKVDVIISEWMGYFLLFESMLDSVLYAKNKYLAKGGSVYPDICTISLVAVSDVNKHADRIAFWDDVYGFKMSCMKKAVIPEAVVEVLDPKTLISEPCGIKHIDCHTTSISDLEFSSDFTLKITRTSMCTAIAGYFDIYFEKNCHNRVVFSTGPQSTKTHWKQTVFLLEKPFSVKAGEALKGKVTVHKNKKDPRSLTVTLTLNNSTQTYGLQ"
no binding,–,"PRMT2(1-95) (enzyme, [35S]-methionine label) MATSGDCPRSESQGEEPAECSEAGLLQEGVQPEEFVAIADYAATDETQLSFLRGEKILILRQTTADWWWGERAGCCGYIPANHVGKHVDEYDPED"
